{"source": "paper doi:10.1101/2025.04.13.648610", "about": "“Catalytic Mechanism and Differential Alarmone Regulation of a Conserved Stringent Nucleosidase” (bioRxiv, 2025)", "proteins": {"B1": {"name": "PpnN E264A (enzyme, Escherichia coli, UniProt P0ADR8 1-454, looked up)", "chain": "MITHISPLGSMDMLSQLEVDMLKRTASSDLYQLFRNCSLAVLNSGSLTDNSKELLSRFENFDINVLRRERGVKLELINPPEEAFVDGRIIRALQANLFAVLRDILFVYGQIHNTVRFPNLNLDNSVHITNLVFSILRNARALHVGEAPNMVVCWGGHSINENEYLYARRVGNQLGLRELNICTGCGPGAMEAPMKGAAVGHAQQRYKDSRFIGMTEPSIIAAEPPNPLVNELIIMPDIEKRLEAFVRIAHGIIIFPGGVGTAEALLYLLGILMNPANKDQVLPLILTGPKESADYFRVLDEFVVHTLGENARRHYRIIIDDAAEVARQMKKSMPLVKENRRDTGDAYSFNWSMRIAPDLQMPFEPSHENMANLKLYPDQPVEVLAADLRRAFSGIVAGNVKEVGIRAIEEFGPYKINGDKEIMRRMDDLLQGFVAQHRMKLPGSAYIPCYEICT", "notes": "PpnN (previously YgdH), nucleosidase, Escherichia coli, with E264A; Made by quick-change mutagenesis on pCA24N-ppnN (wt); also called E264A 4:4 PpnN; E264A variant; source: E. coli BL21 (DE3) ΔppnN (ppnN::kan), purified (Ni-NTA, Superdex 200 for biochemistry; HisTrap, SourceQ, Superdex 200 Increase for crystallisation)"}, "B2": {"name": "PpnN R241A (enzyme, Escherichia coli, UniProt P0ADR8 1-454, looked up)", "chain": "MITHISPLGSMDMLSQLEVDMLKRTASSDLYQLFRNCSLAVLNSGSLTDNSKELLSRFENFDINVLRRERGVKLELINPPEEAFVDGRIIRALQANLFAVLRDILFVYGQIHNTVRFPNLNLDNSVHITNLVFSILRNARALHVGEAPNMVVCWGGHSINENEYLYARRVGNQLGLRELNICTGCGPGAMEAPMKGAAVGHAQQRYKDSRFIGMTEPSIIAAEPPNPLVNELIIMPDIEKALEAFVRIAHGIIIFPGGVGTAEELLYLLGILMNPANKDQVLPLILTGPKESADYFRVLDEFVVHTLGENARRHYRIIIDDAAEVARQMKKSMPLVKENRRDTGDAYSFNWSMRIAPDLQMPFEPSHENMANLKLYPDQPVEVLAADLRRAFSGIVAGNVKEVGIRAIEEFGPYKINGDKEIMRRMDDLLQGFVAQHRMKLPGSAYIPCYEICT", "notes": "PpnN (previously YgdH), nucleosidase, Escherichia coli, with R241A; Made by quick-change mutagenesis on pCA24N-ppnN (wt); also called R241A variant; source: E. coli BL21 (DE3) ΔppnN, purified (Ni-NTA, Superdex 200)"}, "B3": {"name": "PpnN T261A (enzyme, Escherichia coli, UniProt P0ADR8 1-454, looked up)", "chain": "MITHISPLGSMDMLSQLEVDMLKRTASSDLYQLFRNCSLAVLNSGSLTDNSKELLSRFENFDINVLRRERGVKLELINPPEEAFVDGRIIRALQANLFAVLRDILFVYGQIHNTVRFPNLNLDNSVHITNLVFSILRNARALHVGEAPNMVVCWGGHSINENEYLYARRVGNQLGLRELNICTGCGPGAMEAPMKGAAVGHAQQRYKDSRFIGMTEPSIIAAEPPNPLVNELIIMPDIEKRLEAFVRIAHGIIIFPGGVGAAEELLYLLGILMNPANKDQVLPLILTGPKESADYFRVLDEFVVHTLGENARRHYRIIIDDAAEVARQMKKSMPLVKENRRDTGDAYSFNWSMRIAPDLQMPFEPSHENMANLKLYPDQPVEVLAADLRRAFSGIVAGNVKEVGIRAIEEFGPYKINGDKEIMRRMDDLLQGFVAQHRMKLPGSAYIPCYEICT", "notes": "PpnN (previously YgdH), nucleosidase, Escherichia coli, with T261A; Made by quick-change mutagenesis on pCA24N-ppnN (wt); also called T261A variant; source: E. coli BL21 (DE3) ΔppnN, purified (Ni-NTA, Superdex 200)"}, "B4": {"name": "PpnN D49A (enzyme, Escherichia coli, UniProt P0ADR8 1-454, looked up)", "chain": "MITHISPLGSMDMLSQLEVDMLKRTASSDLYQLFRNCSLAVLNSGSLTANSKELLSRFENFDINVLRRERGVKLELINPPEEAFVDGRIIRALQANLFAVLRDILFVYGQIHNTVRFPNLNLDNSVHITNLVFSILRNARALHVGEAPNMVVCWGGHSINENEYLYARRVGNQLGLRELNICTGCGPGAMEAPMKGAAVGHAQQRYKDSRFIGMTEPSIIAAEPPNPLVNELIIMPDIEKRLEAFVRIAHGIIIFPGGVGTAEELLYLLGILMNPANKDQVLPLILTGPKESADYFRVLDEFVVHTLGENARRHYRIIIDDAAEVARQMKKSMPLVKENRRDTGDAYSFNWSMRIAPDLQMPFEPSHENMANLKLYPDQPVEVLAADLRRAFSGIVAGNVKEVGIRAIEEFGPYKINGDKEIMRRMDDLLQGFVAQHRMKLPGSAYIPCYEICT", "notes": "PpnN (previously YgdH), nucleosidase, Escherichia coli, with D49A; Made by quick-change mutagenesis on pCA24N-ppnN (wt); source: E. coli BL21 (DE3) ΔppnN, purified (Ni-NTA, Superdex 200)"}, "B5": {"name": "PpnN K195A (enzyme, Escherichia coli, UniProt P0ADR8 1-454, looked up)", "chain": "MITHISPLGSMDMLSQLEVDMLKRTASSDLYQLFRNCSLAVLNSGSLTDNSKELLSRFENFDINVLRRERGVKLELINPPEEAFVDGRIIRALQANLFAVLRDILFVYGQIHNTVRFPNLNLDNSVHITNLVFSILRNARALHVGEAPNMVVCWGGHSINENEYLYARRVGNQLGLRELNICTGCGPGAMEAPMAGAAVGHAQQRYKDSRFIGMTEPSIIAAEPPNPLVNELIIMPDIEKRLEAFVRIAHGIIIFPGGVGTAEELLYLLGILMNPANKDQVLPLILTGPKESADYFRVLDEFVVHTLGENARRHYRIIIDDAAEVARQMKKSMPLVKENRRDTGDAYSFNWSMRIAPDLQMPFEPSHENMANLKLYPDQPVEVLAADLRRAFSGIVAGNVKEVGIRAIEEFGPYKINGDKEIMRRMDDLLQGFVAQHRMKLPGSAYIPCYEICT", "notes": "PpnN (previously YgdH), nucleosidase, Escherichia coli, with K195A; Made by quick-change mutagenesis on pCA24N-ppnN (wt); source: E. coli BL21 (DE3) ΔppnN, purified (Ni-NTA, Superdex 200)"}, "B6": {"name": "PpnN E263A (enzyme, Escherichia coli, UniProt P0ADR8 1-454, looked up)", "chain": "MITHISPLGSMDMLSQLEVDMLKRTASSDLYQLFRNCSLAVLNSGSLTDNSKELLSRFENFDINVLRRERGVKLELINPPEEAFVDGRIIRALQANLFAVLRDILFVYGQIHNTVRFPNLNLDNSVHITNLVFSILRNARALHVGEAPNMVVCWGGHSINENEYLYARRVGNQLGLRELNICTGCGPGAMEAPMKGAAVGHAQQRYKDSRFIGMTEPSIIAAEPPNPLVNELIIMPDIEKRLEAFVRIAHGIIIFPGGVGTAAELLYLLGILMNPANKDQVLPLILTGPKESADYFRVLDEFVVHTLGENARRHYRIIIDDAAEVARQMKKSMPLVKENRRDTGDAYSFNWSMRIAPDLQMPFEPSHENMANLKLYPDQPVEVLAADLRRAFSGIVAGNVKEVGIRAIEEFGPYKINGDKEIMRRMDDLLQGFVAQHRMKLPGSAYIPCYEICT", "notes": "PpnN (previously YgdH), nucleosidase, Escherichia coli, with E263A; Made by quick-change mutagenesis on pCA24N-ppnN (wt); also called E263A variant; source: E. coli BL21 (DE3) ΔppnN, purified (Ni-NTA, Superdex 200)"}, "B7": {"name": "PpnN H157A (enzyme, Escherichia coli, UniProt P0ADR8 1-454, looked up)", "chain": "MITHISPLGSMDMLSQLEVDMLKRTASSDLYQLFRNCSLAVLNSGSLTDNSKELLSRFENFDINVLRRERGVKLELINPPEEAFVDGRIIRALQANLFAVLRDILFVYGQIHNTVRFPNLNLDNSVHITNLVFSILRNARALHVGEAPNMVVCWGGASINENEYLYARRVGNQLGLRELNICTGCGPGAMEAPMKGAAVGHAQQRYKDSRFIGMTEPSIIAAEPPNPLVNELIIMPDIEKRLEAFVRIAHGIIIFPGGVGTAEELLYLLGILMNPANKDQVLPLILTGPKESADYFRVLDEFVVHTLGENARRHYRIIIDDAAEVARQMKKSMPLVKENRRDTGDAYSFNWSMRIAPDLQMPFEPSHENMANLKLYPDQPVEVLAADLRRAFSGIVAGNVKEVGIRAIEEFGPYKINGDKEIMRRMDDLLQGFVAQHRMKLPGSAYIPCYEICT", "notes": "PpnN (previously YgdH), nucleosidase, Escherichia coli, with H157A; Made by quick-change mutagenesis on pCA24N-ppnN (wt); also called H157A variant; source: E. coli BL21 (DE3) ΔppnN, purified (Ni-NTA, Superdex 200)"}, "B8": {"name": "PpnN M190A (enzyme, Escherichia coli, UniProt P0ADR8 1-454, looked up)", "chain": "MITHISPLGSMDMLSQLEVDMLKRTASSDLYQLFRNCSLAVLNSGSLTDNSKELLSRFENFDINVLRRERGVKLELINPPEEAFVDGRIIRALQANLFAVLRDILFVYGQIHNTVRFPNLNLDNSVHITNLVFSILRNARALHVGEAPNMVVCWGGHSINENEYLYARRVGNQLGLRELNICTGCGPGAAEAPMKGAAVGHAQQRYKDSRFIGMTEPSIIAAEPPNPLVNELIIMPDIEKRLEAFVRIAHGIIIFPGGVGTAEELLYLLGILMNPANKDQVLPLILTGPKESADYFRVLDEFVVHTLGENARRHYRIIIDDAAEVARQMKKSMPLVKENRRDTGDAYSFNWSMRIAPDLQMPFEPSHENMANLKLYPDQPVEVLAADLRRAFSGIVAGNVKEVGIRAIEEFGPYKINGDKEIMRRMDDLLQGFVAQHRMKLPGSAYIPCYEICT", "notes": "PpnN (previously YgdH), nucleosidase, Escherichia coli, with M190A; Made by quick-change mutagenesis on pCA24N-ppnN (wt); also called M190A variant; source: E. coli BL21 (DE3) ΔppnN, purified (Ni-NTA, Superdex 200)"}, "B9": {"name": "PpnN E223A (enzyme, Escherichia coli, UniProt P0ADR8 1-454, looked up)", "chain": "MITHISPLGSMDMLSQLEVDMLKRTASSDLYQLFRNCSLAVLNSGSLTDNSKELLSRFENFDINVLRRERGVKLELINPPEEAFVDGRIIRALQANLFAVLRDILFVYGQIHNTVRFPNLNLDNSVHITNLVFSILRNARALHVGEAPNMVVCWGGHSINENEYLYARRVGNQLGLRELNICTGCGPGAMEAPMKGAAVGHAQQRYKDSRFIGMTEPSIIAAAPPNPLVNELIIMPDIEKRLEAFVRIAHGIIIFPGGVGTAEELLYLLGILMNPANKDQVLPLILTGPKESADYFRVLDEFVVHTLGENARRHYRIIIDDAAEVARQMKKSMPLVKENRRDTGDAYSFNWSMRIAPDLQMPFEPSHENMANLKLYPDQPVEVLAADLRRAFSGIVAGNVKEVGIRAIEEFGPYKINGDKEIMRRMDDLLQGFVAQHRMKLPGSAYIPCYEICT", "notes": "PpnN (previously YgdH), nucleosidase, Escherichia coli, with E223A; Made by quick-change mutagenesis on pCA24N-ppnN (wt); also called E223A variant; source: E. coli BL21 (DE3) ΔppnN, purified (Ni-NTA, Superdex 200)"}, "B10": {"name": "PpnN (wild type), nucleosidase of Escherichia coli (enzyme, UniProt P0ADR8 1-454, looked up)", "chain": "MITHISPLGSMDMLSQLEVDMLKRTASSDLYQLFRNCSLAVLNSGSLTDNSKELLSRFENFDINVLRRERGVKLELINPPEEAFVDGRIIRALQANLFAVLRDILFVYGQIHNTVRFPNLNLDNSVHITNLVFSILRNARALHVGEAPNMVVCWGGHSINENEYLYARRVGNQLGLRELNICTGCGPGAMEAPMKGAAVGHAQQRYKDSRFIGMTEPSIIAAEPPNPLVNELIIMPDIEKRLEAFVRIAHGIIIFPGGVGTAEELLYLLGILMNPANKDQVLPLILTGPKESADYFRVLDEFVVHTLGENARRHYRIIIDDAAEVARQMKKSMPLVKENRRDTGDAYSFNWSMRIAPDLQMPFEPSHENMANLKLYPDQPVEVLAADLRRAFSGIVAGNVKEVGIRAIEEFGPYKINGDKEIMRRMDDLLQGFVAQHRMKLPGSAYIPCYEICT", "notes": "PpnN (previously YgdH), nucleosidase, Escherichia coli; PAG1 domain 1-150, catalytic domain 151-329, PAG2 domain 330-454; also called wt PpnN; PpnNwt; source: E. coli BL21 (DE3) ΔppnN (ppnN::kan), purified (Ni-NTA, Superdex 200 for biochemistry; HisTrap, SourceQ, Superdex 200 Increase for crystallisation); not shown: His6, N-terminal, kept"}}, "data": [{"target": "the molecule itself", "test": "crystal structure; PpnN E264A co-crystallised with pppGpp and 2 mM GMP (E264A 4:4 PpnN; four pppGpp and four R5P bound); 6-8 mg/ml PpnN; 3.5 Å", "values": [{"protein": "B1", "stoichiometry N": 4}]}, {"target": "the molecule itself", "test": "SEC; Superdex 200 10/300 GL in 50 mM Tris-HCl pH 7.5, 200 mM NaCl, 5% glycerol, 5 mM BME; elution profiles of variants compared with wt PpnN", "values": [{"protein": "B2", "stoichiometry N": 4}, {"protein": "B3", "stoichiometry N": 4}, {"protein": "B4", "stoichiometry N": 4}, {"protein": "B5", "stoichiometry N": 4}, {"protein": "B6", "stoichiometry N": 4}, {"protein": "B7", "stoichiometry N": 4}, {"protein": "B8", "stoichiometry N": 4}, {"protein": "B9", "stoichiometry N": 4}]}, {"target": "the molecule itself", "test": "crystal structure; wt PpnN co-crystallised with pppGpp (3:4 PpnN; pppGpp on three of four subunits; R5P and guanine in the active sites); 6-8 mg/ml PpnN, 1-2 mM ligand", "values": [{"protein": "B10", "stoichiometry N": 4}]}]}
